# B1: laminin 511-E8 fragment: E8 fragment of human laminin α5β1γ1 (Nippi. Inc., 382-02413) (protein)
# chain 1: AAEDAAGQALQQADHTWATVVRQGLVDRAQQLLANSTALEEAMLQEQQRLGLVWAALQGARTQLRDVRAKKDQLEAHIQAAQAMLAMDTDETSKKIAHAKAVAAEAQDTATRVQSQLQAMQENVERWQGQYEGLRGQDLGQAVLDAGHSVSTLEKTLPQLLAKLSILENRGVHNASLALSASIGRVRELIAQARGAASKVKVPMKFNGRSGVQLRTPRDLADLAAYTALKFYLQGPEPEPGQGTEDRFVMYMGSRQATGDYMGVSLRDKKVHWVYQLGEAGPAVLSIDEDIGEQFAAVSLDRTLQFGHMSVTVERQMIQETKGDTVAPGAEGLLNLRPDDFVFYVGGYPSTFTPPPLLRFPGYRGCIEMDTLNEEVVSLYNFERTFQLDTAVDRPCARSKSTGDPWLTDGSYLDGTGFARISFDSQISTTKRFEQELRLVSYSGVLFFLKQQSQFLCLAVQEGSLVLLYDFGAGLKKAVPLQPPPPLTSASKAIQVFLLGGSRKRVLVRVERATVYSVEQDNDLELADAYYLGGVPPDQLPPSLRRLFPTGGSVRGCVKGIKALGKYVDLKRLNTTGVSAGCTADLLVGRAMTFHGHGFLRLALSNVAPLTGNVYSGFGFHSAQDSALLYYRASPDGLCQVSLQQGRVSLQLLRTEVKTQAGFADGAPHYVAFYSNATGVWLYVDDQLQQMKPHRGPPPELQPQPEGPPRLLLGGLPESGTIYNFSGCISNVFVQRLLGPQRVFDLQQNLGSVNVSTGCAPALQAQTPGLGPRGLQATARKASRRSRQPARHPA
# chain 2: LQHSAADIARAEMLLEEAKRASKSATDVKVTADMVKEALEEAEKAQVAAEKAIKQADEDIQGTQNLLTSIESETAASEETLFNASQRISELERNVEELKRKAAQNSGEAEYIEKVVYTVKQSAEDVKKTLDGELDEKYKKVENLIAKKTEESADARRKAEMLQNEAKTLLAQANSKLQLLKDLERKYEDNQRYLEDKAQELARLEGEVRSLLKDISQKVAVYSTCL
# chain 3: EANDILNNLKDFDRRVNDNKTAAEEALRKIPAINQTITEANEKTREAQQALGSAAADATEAKNKAHEAERIASAVQKNATSTKAEAERTFAEVTDLDNEVNNMLKQLQEAEKELKRKQDDADQDMMMAGMASQAAQEAEINARKAKNSVTSLLSIINDLLEQLGQLDTVDLNKLNEIEGTLNKAKDEMKVSDLDRKVSDLENEAKKQEAAIMDYNRDIEEIMKDIRNLEDIRKTLPSGCFNTPSIEKP
# How the values were obtained:
# [1] = system: rabbit bullous keratopathy model; test: Cultured corneal endothelium transplantation in rabbit bullous keratopathy model using laminin 511-E8 fragment; type: in vivo
# Protocol: A rabbit corneal endothelium was mechanically detached using a 20 gauge silicone needle (Soft Tapered Needle; Inami & Co., Ltd., Tokyo, Japan) to make a bullous keratopathy model. The control group is a produced model that was not injected with cells. The RCEC group was injected with cultured rabbit corneal endothelial cells in the anterior chamber of the produced model and was maintained in a face-down posture for three hours. Further, the RCEC+E8 group was injected with cultured rabbit corneal endothelial cells, together with DMEM containing laminin 511-E8 fragments adjusted to a concentration of 2.1 nM, into the anterior chamber of the produced model and was maintained in a face-down posture for three hours.
# The corneal thickness of an individual produced in FIG. 1 was measured sequentially with an ultrasound pachymeter (SP-2000; Tomey, Nagoya, Japan). When unmeasurable, 1200 μm, which is the measurable upper limit value, was used.
# The histological examination in FIG. 3 was conducted as follows. The examination was checking normal functioning with immunostaining using Na^+/K^+-ATPase and ZO-1. This is for examining the functions of corneal endothelial cells, pumping function and barrier function. Na^+/K^+-ATPase and ZO-1 indicate normalcy of corneal endothelial cell functions, pumping function and barrier function, respectively. The approach is as follows.
# After cells were immobilized, ZO-1 and Na^+/K^+-ATPase were used as function associated markers and immunostaining was applied for observation with a fluorescence microscope. For tissue staining inspection, cornea tissue extracted from a rabbit was immobilized with 4% formaldehyde for 10 minutes at room temperature (RT) and was incubated for 30 minutes with 1% bovine serum albumin (BSA). To find the phenotype of regenerated corneal endothelial tissue, immunohistochemical analysis was performed on an adhesion binding associated protein ZO-1 and pumping function associated protein Na^+/K^+-ATPase. ZO-1 and Na^+/K^+-ATPase were used as markers associated with cell functions. ZO-1 and Na^+/K^+-ATPase were stained using 1:200 dilution of ZO-1 polyclonal antibodies (Zymed Laboratories, Inc., South San Francisco, Calif.) and Na^+/K^+-ATPase monoclonal antibodies (Upstate Biotec, Inc., Lake Placid, N.Y.). 1:2000 dilution of Alexa Fluor®488 label (Life Technologies Corp., Carlsbad, Calif.) was used as the secondary antibody. The nucleus of cells was then stained with DAPI (Vector Laboratories, Inc., Burlingame, Calif.). The cell morphology was further stained with 1:400 dilution of Alexa Fluor® 488-conjugated phalloidin (Life Technologies Corp., Carlsbad, Calif.). The slide was then observed under a fluorescence microscope (TCS SP2 AOBS; Leica Microsystems, Welzlar, Germany).
# [2] = system: rabbit bullous keratopathy model; test: Cultured corneal endothelium transplantation in rabbit bullous keratopathy model with or without Descemet's membrane detachment, laminin with ROCK inhibitor (4 groups); type: in vivo; conditions: 14 days after transplantation, laminin 511-E8 fragment (2.1 nM) added group, with Y-27632 100 μM
# Protocol: Tests were conducted with 4 groups of 4 rabbits, i.e., group injected with cultured corneal endothelial cells together with Y-27632 (+) (100 μM) after detaching corneal endothelial cells without detaching the Descemet's membrane, group injected with cells together with laminin 511-E8 fragments (2.1 nM) and Y-27632 (+) (100 μM) after detaching corneal endothelial cells without detaching the Descemet's membrane, group in which a bullous keratopathy model with detached Descemet's membrane was injected with cells together with Y-27632 (100 μM), and group in which a bullous keratopathy model with detached Descemet's membrane was injected with cells together with laminin 511-E8 fragments (2.1 nM) and Y-27632 (+) (100 μM).
# The corneal thickness was measured with an ultrasound pachymeter (SP-2000; Tomey, Nagoya, Japan). When unmeasurable, 1200 μm, which is the measurable upper limit value, was used. Further, the ocular pressure was measured with a Tonovet (M. E. Technica, Tokyo).
# The histological examination shown in FIG. 8 was conducted in the same manner as in Example 1.
# [3] = system: monkey bullous keratopathy model; test: Laminin coating of corneal stroma in Descemet's membrane detached monkey bullous keratopathy model, then cell transplantation; type: in vivo; conditions: cynomolgus monkey, laminin 511-E8 21 nM in anterior chamber for one hour (coating), then MCEC with 2.1 nM
# Protocol: A cynomolgus monkey corneal endothelium was mechanically detached using a 20 gauge silicone needle (Soft Tapered Needle; Inami & Co., Ltd., Tokyo, Japan) to make a bullous keratopathy model. The Descemet's membrane was detached in the produced bullous keratopathy model. Laminin 511-E8 fragments were injected into the anterior chamber of the bullous keratopathy model at a concentration of 21 nM and the model was left standing for one hour. The corneal stroma exposed by detaching the Descemet's membrane was coated thereby in the living body. Subsequently, 5.0×10^5 cultured monkey corneal endothelial cells were injected with DMEM containing laminin 511-E8 fragments adjusted to a concentration of 2.1 nM into the anterior chamber of the bullous keratopathy model, which was maintained in a face-down posture for three hours as in Example 3.
# [4] = system: human corneal endothelial cells; test: Adhesion of corneal endothelial cells (CellTiter-Glo, 24 hours after seeding); type: cell-based; conditions: laminin 511-E8 fragments 2.1 nM added on seeding; relative to fragment free cells; HCEC
# Protocol: The medium was completely removed from a culture dish culturing human corneal endothelial cells. The cells were washed twice with PBS (−). After washing, phosphate buffer was added, and the mixture was incubated for 5 minute at 37° C. (5% CO2). Subsequently, PBS (−) was removed and TrypLE™ Select (10×) (Life Technologies, A12177-01) was added. The mixture was incubated for 10 minutes at 37° C. (5% CO2). Opti-MEMI (Life Technologies, 31985-070) was then added to collect the cells. After collecting the cells, the cells were centrifuged for 3 minutes at 1200 rpm to make a cell suspension with Opti-MEM I. At this time, a laminin 511-E8 fragment free group was prepared as a control, as well as a group supplemented with laminin 511-E8 fragments so that the final concentration was 2.1 nM. At the same time, mouse IgG and integrin neutralizing antibody were added to the laminin 511-E8 fragment added group to adjust the final concentration to 2 μg/ml. After the adjustment, cells were seeded on a 96-well plate at 5000 cells/well and were incubated for 24 hours at 37° C. (5% CO2). After 24 hours of seeding, the medium was completely removed and the cells were washed twice with PBS (−). After washing, a medium and CellTiter-Glo Luminescent Cell Viability Assay (Promega Corporation, Madison, Wis.) were added at a ratio of 1:1. […]
# [5] = rabbit cornea after transplantation of RCEC with laminin 511-E8 fragments 2.1 nM
molecule,measurement,setting,value
B1,corneal thickness,"[1]; average on day 7, RCEC injected with laminin 511-E8 fragments 2.1 nM, ultrasound pachymeter",637 μm
same,N-cadherin (adherence junction) immunostaining,[1]; [5],normally expressed
same,Na+/K+-ATPase (pumping function) immunostaining,[1]; [5],expressed
same,"ZO-1 (tight junction, barrier function) immunostaining",[1]; [5],expressed
same,cell morphology by phalloidin staining,[1]; [5],monolayer polygonal morphology
same,cornea appearance in pictures of anterior ocular segment,"[1]; rabbit, cultured RCEC injected into anterior chamber with or without laminin 511-E8 fragments 2.1 nM, after one and two weeks",transparent and healed
same,cell morphology by phalloidin staining,[2],normal monolayer polygonal morphology
same,cornea appearance (anterior ocular segment pictures),[3],transparent and healed
same,number of adhering cells after 24 hours,[4],137.3±2.8%
